Laboratory results reported in the nanobody polyreactivity screen of Harvey et al. (2022).

Experiment: yeast display, Sf9 membrane polyspecificity reagent, FACS + sequencing; frameworks hold sequencing errors
Procedure, shortened: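 Polyreactivity labels are assigned by the sorting gate from which each nanobody was recovered. The gates were low and high (top ~1%), set on anti-HA fluorescence for expression and streptavidin fluorescence for reagent binding. Before sorting, galactose-induced (36–48 hours) yeast display cells were stained for 1 hour at 4 °C with 10% biotinylated, detergent-solubilized Sf9 membrane reagent.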

Row | Sequence | polyreactivity (PSR sort gate)
1 | QVQLVESGGGLVQAGGSLRLSCAASGSTFGHYAMRSYRQAPGKERQLVAGITDTDNHELRRLCEGRFTISRDNAKNTVYLQMNSLKPEDTAVYDCDAGSNAVFYDYGYWGQGTQVTVSS | low polyreactivity
2 | QVQLVESGGGLVQAGGSLRLSCAASGRIYNGNAMGWYRQAPGKERELVAAITSDGSTYADSVKGRFTISRDNAKNTVYLHMNSLKPEATADYYCATDDPLAYGSFGPYQPYDYWGQGTQVTVSS | low polyreactivity
3 | QVQLVESGGGLVQAGGSLRLSCAASGFTFTRYAMGWYRQAPGKERELVAAISRIGGSTYYADSVKGRFTISRDNAKNTVYLQMNSLKPEDTAVYYCAAYKVPSYDYWGQGTQVTVSS | high polyreactivity
4 | QVQLVESGGGLVQAGRSLRLSCASSGRIFWDYAMGWYRQAPGKERELVAAISWGSGRTYYADSVKGRFTISRDNAKNTVYLQMNSLKPADSAVDYCAARSSYRKMDYWGQGTQVTVSS | high polyreactivity
5 | QVQRVESRGGLVQAGGTLRLSCAASGSTFGVNAKGCYSQAPGKDRELVATISRGTSTNYADSVKGRFTISRDNAKNTVYLQMNSLKPEDTAVYYCAKRVFYPGAYRYYYCGQGTQVTVSS | high polyreactivity
6 | QVQLVESGGGLVQAGGSLRLSCAASGRIFYANAMGWYRQAPGKERELVAAISSGGSTYYADSVKGRFTISRDNAKNTVYLQMNSLKPEDTAVYYCAKDTGSRTDSWTVWHDYWGQGTQVTVSS | low polyreactivity
7 | QVQLVESGGGLVQAGGSLRLSCAASGRIFGYYAMGWYRQAPGKERELVAAISSNGGSTYYADSVKGRFTISRDNAKNTVYLQMNSLKPEDTAVYYCKVYFYSRHYFYRGDYWGQGTQVTVSS | high polyreactivity
8 | QVQLVESGGGLVQAGGSLRLSCAASGRIFFYNVMGWYRQAHGKERELVAAITTIGGSTYYADSVKGRFTISRDNAMNTVYLQMNSLKPEDTAVYYCAAGWVTNSDGMDYWGQGTQVTVSS | low polyreactivity
9 | QVQLVESGGGLVQAGGSLRLSCAASGSTFVSNGMGWYRQAPGKERELVAAITRGGSTKYADSVKGRFTISRDNAKNTVYLQMNSLKPEDTAVYYCAKRLYTRPGWYDYWGQGTQVTVSS | high polyreactivity
10 | QVQLLESGGGLVPAGGSLRLSWAASGSTLYDYTMGWYRQAPGKERELVAAIRVSGARTFYADSVKGRFTISRDNAKNTVYLQRNSLKPEDTAVYYCAARWYIANPLSPSDYWGQGTQVTVSS | low polyreactivity
11 | QVQLVESGGGLVQAGGSLRLSCAASGSTLNLYAMGWFRQAPGKEMELVAAIRSHGVSTYYADSVKGRFTISRDNAKNTVYLQMNRLKPEYTAFYYCAGVYIPGGRYTYFPYKRYDYWGQGTQVTVSS | high polyreactivity
12 | QDQHVESGGGLVQARGSLRLSCAASGRIFANKAMGRYRQAPGKERELVAAISRSGVSTYYADSVKGRFTISRDNAKNTVYLQMNSLKPEDSAVYYCAARWRSGFTSGDDWGQGTQVTVSA | low polyreactivity
13 | QVQLVESGGGLVQAGGSLRLSCAASGLTFGYYTMGWYRQAPGKERELVAAITYSGGSTYYADSVKGRFTISRDNAKNSVYLQMYSLKPEDTAVYYCAADGPVYTTYEYWGQGTQVTVSS | low polyreactivity
14 | QVQLVESGGGLVQAGGSLRLSCAASGITFKFNAMGWYRQAPGKERELVAAISVRGGRTYYADSVKGRFTISRDNAKNTVYLQMNSLKPEDTAVYYCAATDWFYSYYLGYGYGYWGQGTQVTVSS | high polyreactivity
15 | QVQLVESGGGLVQAGGSLRLSCAASGSIFPPYTMGWFRQAPGKELELVATISSTGITNYADSVKGRFTNSRDNAKNTVYLQMNSLKQEDTAVYYCAAGLWYSFDYWGQGTQVTVSS | high polyreactivity
16 | QVQLVESGGGLVQAGGSLRLSCADSGSTFYYYAMGWYRQAPGKERELVAAISTSGGSTYYADSVKGRFTISRDNAKNTVYFQMNSLKPEDTAVYYCAARYRRGMGYWGQGTQVTVSS | high polyreactivity
17 | QVQLVESGGGLVQAGGSLRLSCAASGSTIPLYAMGWYRQAPGKERELVAAISRSGGRTYYADSVKGRFTISRDNAKNTVYLQMNSLKPEDTAVYYCDSAQGSRVDYWGQGTQVTVSS | high polyreactivity
18 | QEQLQESGGGLVQAGGSLRLSCAASGNITLDTAMGWSRQAPRKEREFVASINDGGITNYADSVKGRFTICRDNAKNSVYLQMNSLKPEDTAVFYCAARWIWRGYDYWGQGTQVTVSS | high polyreactivity
19 | QVQLVESGGGLVQAGGSLRISCAASGIIFYTYVMGWYRQAPGKEREFVAGISTSGGRTDYADSVKGRFTISRDNAKNTVYLQMNSLKPEDTAVYYCNADYWQWYSYWYDYWGQGTQVTVSS | high polyreactivity
20 | QVQLVESGGGLVQAGGSLRLSCAASGITFLRYAMGWYRQAPGKERELVATIRTGGTTNYADSVKGRFTISRDNAKNTVYLLMISLKPEDTAVYYCAVDWSRQAHKFNYWGQGTQVTVSS | high polyreactivity
21 | QVQLVESGGGLVQAGGSLRLICAASGFIFASNAMGWYRQAPGTERELVASITRGGTTKYADSVKGRFTISRDNAKNTVYLQMNSLKPEDTAVYYCAKRYVRFPWRMDYWGQGTQVTVSS | high polyreactivity
22 | QVQLVESGGGVVQAGVSLRLSCAASGFTSHGYAKGWYRQAPGQERELVAAIDSVGSTYYADSVKGRFTISRDNSKNTVYLQMNSLKQEDTAVYYCAARRKRVSFYQEYDYWGQGTQVTVSS | low polyreactivity

Row | Sequence | polyreactivity (PSR sort gate)
23 | QVQLVESGGGLVQAGGSLRLSCDASGSTFRWYTMGWYRPAPGKEREVVATISRSGGSTYNADSVKGRFTISRDNAKNTVYLQMNSLKPEDTAVYYCNKLGVSTHSYKYYYWGQGTQVTVSS | high polyreactivity
24 | QVQLVESGGGLVQAGGRLRLSCAASGRIFGSYAMGWYRQAPGKERELVAAITFSGVNTYYADSVKGRFTISRDNAKNTVYLQMNRLKPEDTAVYYCAVRGPEAEYDYWGQGTQVTVSS | high polyreactivity
25 | QVQLVESGGGLVQAGGSLRLSCAASGITFYRYAMGWYRPAPGKERELVAAISSRGGRTYYADSVKGRFTISRDNEKNTVYLQMNSLKPEDTGVYYCAKGGIVGSTLEYDYWGQGTQVTVSS | high polyreactivity
26 | QVQLVESGGGLVQAGGSLRLSCAASGSIFATYAMGWYRQAPGKERELVAAITSSDGSTNYADSVKGRFTISRDNAKNTVDLQMNRLKPEDTAVYYCATDAPDRTDSDSGFDAGYDYWGQGTQVTLSS | low polyreactivity
27 | QVQLVESGGGLVQAGGSLRLSCADSGFIIGRYTMGWYRQAPGKERELVAAISFRGGSTYYADSVKGRFTISRDNAKNTVYLQMNCLKPEDTAVYYCAAYSSGPYGFDYWGQGTQVTVSS | high polyreactivity
28 | QVQLEESGGGLVQAGGSLRLSCAASGSTFTRYAMGWYRQAPGKERELVAAISRGGSTNYADSVKGRFTISRDNAKNTVYLQMNSLKPEDTAVYYCAARSWYLRYDYWGQGTQVTVSS | high polyreactivity
29 | QVQLVESGGGLVQAGGSLRLSCAASGRIFQLYAMGWYRQRPGKERELVAAIRYSGDSTYYADSVKGRFTISRDNAKNTVYLQMNSLKPEDTAVYYCAAYWVYLSYYRYDYWGQGTQVTVSS | high polyreactivity
30 | QVQLVESGGGLVQAGGSLRLSCAASGRIFTYYAMGWYRQAPGKERELVAAISSGGSTYYADSVKGRFTISRDNAKNTVYLQMNSLKPEDTAVYYCAADSIYYFPYDYWGQGTQVTVSS | high polyreactivity
31 | QVQLVESGGGLVQAGGSLRLSCAASGSIFRSYVMGWSRQAPGKERELVAAISRRGVRTFYADSVKGRFTISRDNAKNTVYLQMNSLKPEDTAVYYCAAQPYKGTGYDYWGQGTQVTVSS | high polyreactivity
32 | QVQLVESGGGLVQAGGSLRLSCAASGRIFGPYAMGWSRQAPGKERELVASISYSGGSTYYADSVKGRFTISRDNAKNTVYLQMNSLKPEDTAVYYCNALSRTAWSYYLYPSTPFDYWGQGTQVTVSS | low polyreactivity
33 | QVQLVESGGGLVQAGGSLRLSCAASGSTFPVYAMGWYRQAPGKERELVAAITSGVSTNYADSVKGRFTISRDNAKNTVYLQMNSLKPEDTAFYYCAKDFGLLPIRDDYWGQGTQVTVSS | low polyreactivity
34 | QVQLVESGGGLVQAGGSLRFSCAASGRTFPSKTMGLYRQAPGKERELVAAISKNGGSTYYADSVKGRFTISRDNAKNTVYLQMNSLKPEDTAVYYCNRVRYPRVDYWGQGTQVTVSS | high polyreactivity
35 | QFQLVESGGGLVQAGGSLRLSCAASGRIFYSYAIGWYRQAPGKERELVAAINWSSVRTYYADSVKGRFTISRDNAKNTVYLQMNSLKPEDTAVYYWNAYSTEWGRYDYWGQGTQVTVSS | high polyreactivity
36 | QVQLVESGGGLVQAGGSLRLSCAASGSIFHWNAMGWYRQAPGKERELVAGITTSGGTTYYADSVKGRFTISRDNAKNTVYLQMNSLKPEDTAVYYCAARIIRWRPRWPSYGKYDYWGQGTQVTVSS | low polyreactivity
37 | QVQLVESGGGLVQAGGSLRLSCAASGFIFVYYVMGWYRQAPGKERELVAAITQSGGSTYYADSVKGRFTISRDNAKNTVYLQMNSLKPEDTAVYYCAAYRRTTGGGYDYWGQGTQVTVSS | high polyreactivity
38 | QVQIVESGGGLVQAGGSLRLTCAASGSIFGYYAMGWYRQAPGKERELVAAITTGGSTSYADSVKGRFTISRDNAKKTVYLQMNSLKPEDTAVYYCNARFKLLFGRADDYWGQGTQVTVSS | low polyreactivity
39 | QVQLVESGGGLVQAGGSLRLSCAASGFTLWLYAMGWYRQAPGKERELVASISWAGGSTYYADSVKGRFTISRDNAKNTVYLQMNSLKPEDTAVYYCAASRARTRSAYNYSGQGTQVTVSS | high polyreactivity
40 | QVQLVESVGGLVQAGGSLRLSCAASGFIFSYYAMGGYRQAPGKERELVAAISKTGGNTYYADSVKGRFTISRDNAKNTVYLQMNSLKPEDSAVYYCNALRGDWRDMGYWGQGTQVTVSS | high polyreactivity
41 | QVQLVESGGGLVQAGGSLRLSCAASGSTFYRNAMGWYRQAPGKERELVAAISSTGGSTYYADSVKGRFTISRDNAKNTVYLQMNSLKPEDTAVYYCARDYSWLTRGSDYDYWGQGTQVTVSS | low polyreactivity
42 | QVQLVESGGGLVQAGGSLPLSCAASGRTFNFYAMGWYRQAPGKERELVATISGGVSTYYADSVKGPFTISRDNAKITVYLQMNSLKPEDTAVYYCAKDSCYPQWDLDYWGQGTQVTVSS | high polyreactivity
43 | QVQLVESGGGLVQAGGSLRLSCAASGRTFGGNAMGWYRQAPGKERELVAAITGRGGSTYYADSVKGRFTISRDNAKNTVYLQMNSLKPEDTAVYYCAKQFKRGYGYDYWGQGTQVTVSS | low polyreactivity
